Assay results published in the RNAGym collection of RNA variant scans (doi:10.1073/pnas.2313332121).

B1: TPR t1 (parent)
chain: GACCAAUCUGCCCUCAGAGCUCGAGAACAUCUUCGGAUGCAGAGGAGGCAGGCUUCGGUGGCGCGAUAGCGCCAACGUCCUCAACCUCCAAUGCAUCCCACCACAUGAUGAUGCCUGAAGAGCCUUGGUUUUUUG

Variants of: B1
Experiment: polymerase ribozyme fitness, log enrichment relative to wild type (log ratio); higher = more active; in vitro selection for triplet polymerase activity
Method in brief: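 A heterodimeric triplet polymerase ribozyme had each of its subunits mutagenized by PCR into a library, which was transcribed. One round of in vitro selection, done in triplicate, annealed each library with a biotinylated primer, its partner subunit and triplets, then incubated it frozen at −7 °C before gel excision of extended constructs, streptavidin-bead capture and RT-PCR. Fitness is the logarithm of genotype enrichment relative to wild-type enrichment, based on Illumina sequencing of inputs and outputs and inverse-variance-weighted replicate averages. A base-2 logarithm is used, and genotypes were kept only with ≥10 input reads and ≥1 read per output.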

Variant	polymerase ribozyme fitness (log ratio)
C49A C86A U129G	-1.96
C34G G107A	-7.98
U59A C64A A118U	-6.49
G48C C49A U78G U81G	-1.87
C8G A50U	-0.104
U54C G71A C85G C101U U112G G120C	-4.36
C11A G60C C86U	-1.76
G44U A46U U112C	-0.701
A41U G47A G110U	-5.48
A46C U112G G122U G135U	-2.04
C64U G120U C123G	1.13
A2C A5U G52U C62A	-4.11
U7A C20U G120U	-0.3
C72U C86U G117A	-2.26
G45U G60C C88G	-1.14
G61U G107A U112C G122A	-5.04
A6C C12A	-1.61
C20G U78C	-3.43
C3U U7C C86A A121G	2.02
G47U C104U	-1.55
C11U A18C A29C C101A G110C	-7.19
C56U U78C	-0.427
G10U G60C C79U G120C	0.981
A2G C28U G93C C124G U133G	-2.71

Variant	polymerase ribozyme fitness (log ratio)
G23C G45C G51U G71C G120C	-6.31
C53U C56U C89A G120A	-1.49
C12A C40U A91C	-3.09
G45U G58A G77A C82A	-1.74
G63A U116C G127U U133A	-5.28
G60U C114A	-1.45
C13A A46C G69C C124G	-1.36
C12G C72G U87C	0.909
A50U G63C	-1.63
C53A C99U	-4.03
C28G G110U C124U	-0.355
C62U U78C C94A	-1.92
C49U C98U	-2.16
G36U C80A U81A A121U U130C	-0.239
A50G A105C	-2.43
G61A C114A	-0.372
G47U G52A	-2.71
C40U G93A	-1.09
G69U U112G C123G	1.13
C80U A111G	-0.196
C70U G71A U130C	-1.13
U14C G17C C20A A24U A43C C85U A111G	-6.11
G77A C101A	-1.18
C70G C114U	-4.81

Variant	polymerase ribozyme fitness (log ratio)
C13G G60C G77U C101A G120C	-1.78
C13U A46C	0.0656
G47U U87G U129A	-4.44
C11G U54C G60U C86U	-0.56
C40U C104U	-0.655
C89U C97G	-5.4
C76G U78C G135U	-1.36
A29C G61U A90G U116G	-5.84
G47U G57U G93U	-3.51
C114U U129C	-3.79
A2G G93A	-0.719
C49U G128U	-2.9
A43U G69C	-2.32
G61C A84U G93C G128A	-5.12
A50G C80G A83G G120C	-6.33
A2G G113A	-1.6
G60A C82U U109G	-5.13
G47U G52A A83C	-2.36
A2G A37C A111G	-1.49
A66U U106C	-1.81
C12U A68G	-1.94
A2C C49A U87A C88A	-3.11
G71U U87G	-0.424
U30G C34G C56A U109A A111C G117U U131C U132C	-6.83

Variant	polymerase ribozyme fitness (log ratio)
G17A G19U U55A C82A C114A	-3.12
U14C U116G G120A U129A	-2.37
C40A A46G U132A	-1.49
C20U U112G	-1.11
C3A U7G U32C G60U G93C A111C	-2.96
C15A G52U C94G	-3.9
C20A C89U U130A	-3.54
G10C G51A U106A U112A	-5.36
A6U C15G U59G	-2.42
C8U A103U C115G	-5.83
U32C U33A C104A U109G C114U A121U G122C	-5.8
A16G C62U	-1.57
G10A C76G G120A	1.28
G61A G113C	-1.78
C15U A37G C64U	-1.81
A50U C72U U106C	-0.84
C40A U109C C115U	-6.69
C56U C73G G122A U130A	-2.91
C62A U125G	-1.43
C11U C94G	-1.27
A5U G47A C124U U126A	0.649
C11U G113U	-2.7
A24G C94A	-2.52
C56A	-0.243

Variant	polymerase ribozyme fitness (log ratio)
G19U A43U A74U	-3.22
G36U C56U C97A	-0.495
G39A C56A	-0.909
C79A G117A	-2.46
U7G A66C G71U	-1.24
U9G C13U C89A G107A C114U	-1.8
U32A A121U U133A	-1.22
G45A C72U C89G A91C	-1.81
C8U C15G G63U U87A	-3.32
C73A A111C	0.669
G36A G107A C124A	-7.46
C12G U96A	-0.352
C13U C62U C85A U106A	-1.41
G51A A68G C123G	-4.37
G17A A43U G120A	-3.38
G47C G52C	-3
C49A U55C G61C C104U	-2.02
U9G G60U C62U C72G	-2.01
C11A G45U U125G G127A	-4
C11G G17A G58A U106A U129A	-5.54
G61U A91U	-1.05
G60A U78C	-0.393
G19U C124U	-1.97
C8A A74G	0.152

Variant	polymerase ribozyme fitness (log ratio)
A26G C70U	-2.78
C40U G60U U131G	-0.956
U14A G44C G61U C85G U96C G113U	-6.21
C64A G113A	-6.92
G45U U116G	-3.76
C70U C76A A121U U125G	-0.883
A18G G61U C94G G113U	-3.32
C15A U92A U132A	-4.82
G17U G60U C88U C97U G120A	-2.79
G57U G77U G113A G127C	-2.59
C31G A111U C114U	-6.64
C49G C56U	-0.51
G93U C104A	-2.9
C22G C72U	-3.13
G44A G110A	-2.08
U33C C79G A111U	-7.17
U30A G61A C88U	-5.29
U55G G77C A100U G120C U131A	0.465
C20A A46C U78C A111C C114A	-3.99
C53A C56U G58A U133G	-0.438
A37U G47U U54C U78G C85U A119U	-3.1
C70U C82A C85U	-1.4
C8G C11G C56A C62G C85U	-4.61
U55G A95U A111C A121U G127C	0.185

Variant	polymerase ribozyme fitness (log ratio)
A2G U54A G60C U106G	-2.29
A2U C11A G51A A66G G69U C98U	-4.43
G39C G77C C115U G128A	-4.5
G48C U92A C104U	-3.44
C20A U32G G35C G93A G113A U125A	-6.57
G48C C49A	-2.13
A50G U106G U116G	-3.36
C3A C11U C99U	-4.11
C101A G117C	-5.15
C22G A29C G61U G63C C97A C124A	-6.38
C4A G45A G52C	-2.98
C13A U130A	-2.56
C20U C70U A95G	-1.86
C12A A41C C72U U92G A111G	-1.91
G61A U87G	0.506
U38G A41U	-2.98
G45A G48U	-1.58
G60C C73U U130G	-0.603
U30A G48C G63U C124A	-5.12
A18U G61C U112A G122U	-6.15
G36U A37U	-1.98
C12U C72U A100C G113U G127A	-3.91
U9G C88U G93C	-0.642
